Measured values taken from patent publication US20080153161A1, “Genetically Encoded Photosensitizers and Methods for Using Same” (priority 2005, published 2008).
“Also recorded” adds a separate entry of the source. Where a SMILES comes first, the peptide text is derived from it. The star is where a group is joined. Cbz = O=C(OCc1ccccc1)*; CH2F = FC*

Columns and labels:
B16 melanoma cells [1] = experiment: Phototoxicity of TMRM compared with mitochondrial KillerRed in B16 melanoma cells; format: cell-based; conditions: 100 nM, 3.3 W/cm2 green light
Experimental: The phototoxicity of mitochondrial KillerRed was compared with the phototoxicity of tetramethylrhodamine (TMRM)—a red fluorescent dye capable of producing ROS which accumulates in mitochondria of living cells. B16 melanoma cells were preincubated with 100 nM TMRM for 20 min at 37° C. and irradiated by 3.3 W/cm2 green light (40× objective, 535-575 nm) for time periods of 10 sec, 1 min, 5 min, and longer. […] Irradiation for 1 min led to cell death within 30-40 min. The effect was similar to that obtained by 15-min irradiation of the KillerRed-expressing cells under the same conditions.

B16 melanoma cells [2] = experiment: Light-induced killing of B16 melanoma cells expressing mitochondrially targeted KillerRed; format: cell-based; conditions: pre-incubated with 10 μM inhibitor, 1.5 hour post illumination
Source text: Mitochondrial localization of a photosensitizer is known to be effective in photodynamic therapy, leading preferentially to apoptotic cell death. To provide for a more pronounced phototoxic effect, KillerRed was targeted to mitochondria by cloning it in frame with a double N-terminal mitochondrial localization signal and the resulting construct was transiently transfected into B16 melanoma cells. Exposure of mitochondrially targeted KillerRed expressing B16 melanoma cells to green light for 15 minutes using lower irradiation intensity (40× objective, 535-575 nm excitation filter, 3.3 W/cm2) led to nearly 100% cell death within 45 min after irradiation (FIG. 8B). If pre-incubated with 10 μM pancaspase inhibitor zVAD-fmk, the cells survived identical irradiation and preserved their native shape within 1.5 hour post illumination. This indicates the apoptotic way of the mitochondrially targeted KillerRed-mediated cell death.

beta-gal [3] = experiment: Inhibitory analysis with specific ROS quenchers in the in vitro beta-gal CALI system; format: biochemical, E. coli; conditions: superoxide dismutase 500 u/ml with catalase 500 u/ml; mannitol 67 mM; sodium azide 20 mM
Experimental: White and hatched columns show β-gal activity for the intact and irradiated samples, respectively.
The mechanism of the KillerRed-mediated effect was tested using inhibitory analysis. A specific ROS quenchers were added to the in vitro beta-gal CALI system described above (FIG. 6).

[4] = system: E. coli (XL1-Blue strain); experiment: Screening of fluorescent and chromo-proteins for phototoxic effect in E. coli (CFU after white light); format: cell-based; conditions: for phototoxic effect: E. coli expressing the protein, white light 1 hour, CFU irradiated vs non-irradiated
Source text: Looking for a GFP-like protein, which could be used as an efficient photosensitizer, we screened different proteins for a phototoxic effect in E. coli including: • (1) Anemonia majano fluorescent protein AmCyan (also noted to as FP486, GenBank ID AF168421; Clontech); • (2) Zoanthus sp. fluorescent protein ZsGreen FP506 (also noted to as FP506, GenBank ID AF168422; Clontech); • (3) red fluorescent protein DsRed2 (Clontech); • (4) Anemonia sulcata GFP-like chromoprotein asulCP FP595 (also noted to as FP595, GenBank ID AF246709); • (5) asulCPW94F protein, a mutant of chromoprotein FP595 comprising W94F amino acid substitution; • (6) commercially available red fluorescent protein AsRed2 (Clontech); • (7) Dendronephthya sp. green fluorescent protein dendGFP (GenBank ID AF420591); • (8) Goniopora tenuidens GFP-like chromoprotein, gtenCP (GenBank ID AF383156); • (9) aceGFP (GenBank ID AY233272); • (10) circularly permutated aceGFP (GenBank ID AY233272) variant, cpT1 having nucleotide and amino acid sequences shown in SEQ ID NOS: 5, 6.; • (11) monomeric mutant of dendGFP protein, dendQ4mono, having nucleotide and amino acid sequences shown in SEQ ID NOS: 7, 8.; • (12) EGFP, the most popular Aequorea GFP mutant variant (GenBank ID U55763); • (13) chromoprotein am2CP(PCT/RU03/00474; SEQ ID NOS: 9, 10); • (14) red fluorescent protein KillerRed (JR18IC+)(SEQ ID NOS: 3, 4), developed on the basis of chromoprotein am2CP by random mutagenesis; and • (15) non-colored mutant of FP506 protein, ZsGreenY66A, containing mutation Y66A which eliminates the chromophore, was used as a negative control.
Synthetic genes encoding proteins listed above were cloned into the pQE30 vector and transformed into E. coli (XL1-Blue strain). For each protein tested, protein expressing cells were taken from one E. coli colony, diluted into 1 ml of PBS buffer and divided into two portions. One of them was irradiated with white light (light source Fiber-Light from Dolan-Jenner Industries, Inc) for 1 hour. Then both samples aliquots were sowed to the Petri dishes at different dilutions. The number of growing colonies corresponded to the number of bacteria cells surviving after irradiation (i.e. colony forming units, CFU). The CFU number for the irradiated E. coli portion was compared to non-irradiated one, thus allowing an estimate of the relative phototoxic effect for every of the proteins tested.
Comparing to the wild type chromoprotein anm2CP, KillerRed contains amino acid changes T145N and C161A (corresponding to positions 148 and 165 in Aequorea victoria GFP), which are spatially close to the chromophore and affect fluorescent properties, and a number of folding mutations. […]

[5] = system: E. coli (XL1-Blue strain); experiment: Time course of survival of E. coli expressing fluorescent proteins under white light; format: cell-based
Experimental: To compare the KillerRed phototoxic effect with the effect of DsRed2 fluorescent protein, pQE30 vectors encoding KillerRed, DsRed2 or ZsGreenY66A non-colored protein were prepared as described in Example 1. E. coli (XL1-Blue strain) were transformed with said pQE30 vectors. The cells expressing ZsGreenY66A was used as a negative control. We estimated the percent of cells surviving after bacteria irradiation for 5, 10, 20, 40 and 60 minutes. […] The graph of FIG. 2 indicates the number of colonies, which grew without irradiation and after irradiation for the corresponding period of time.

E. coli = experiment: Action spectrum of KillerRed phototoxic effect (green vs blue light); format: cell-based
Source text: FIG. 3 illustrates excitation (dotted line) and emission (solid line) spectra for KillerRed protein. Hatched and white rectangles show relative phototoxic effect from irradiation with blue (460-490 nm) and green (540-580 nm) light, respectively. Numbers above the rectangles represent the decrease in the number of viable cells after 10-min irradiation (folds).
Further we roughly checked the action spectrum for KillerRed phototoxic effect (FIG. 3).

[6] = target: T1, pleckstrin homology (PH) domain of phospholipase C delta-1 (PLC delta-1) (Homo sapiens, UniProt P51178); experiment: KillerRed-mediated CALI of PH domain in mammalian cells (membrane to cytoplasm translocation); conditions: KillerRed expressed separately from the PH domain, in membrane or cytosol
T1 sequence (P51178 1-224): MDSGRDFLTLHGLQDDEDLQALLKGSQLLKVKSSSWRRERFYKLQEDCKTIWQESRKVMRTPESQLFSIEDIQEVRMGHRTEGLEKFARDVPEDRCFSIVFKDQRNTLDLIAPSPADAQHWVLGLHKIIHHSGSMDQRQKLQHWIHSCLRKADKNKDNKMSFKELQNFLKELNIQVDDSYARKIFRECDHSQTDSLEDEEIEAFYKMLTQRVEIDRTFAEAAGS
Source text: KillerRed-mediated CALI was further tested in mammalian cells (FIG. 7). The pleckstrin homology (PH) domain of phospholipase C delta-1 (PLC delta-1) was used as a model protein. The PH domain locates to the inner leaf of plasma membrane due to its high affinity for membrane phospholipids. It has been shown that in case of direct protein inactivation by dye-generated ROS, the PH domain will lose its membrane affinity and become evenly distributed throughout the cell volume.
A coding sequence for the first 224 amino acids of PLC delta-1 comprising the N-terminal PH-domain was amplified from Fetus Brain cDNA (Clontech) with specific PCR primers. […] Primers used comprised certain restriction sites that were used for following cloning of PCR products into pEGFP-Tub plasmid (Clontech) in frame with EGFP. As a result, a PH domain fusion with EGFP and triple fusions EGFP-PH-KillerRed and EGFP-PH-DsRed-Express operatively linked with CMV promoter were obtained.
The 293T cell-derived Phoenix Eco cell line was transiently transfected with these constructs. Intracellular localization of PLC delta-1 was evaluated using EGFP signal before and after CALI of the PH domain using confocal and fluorescence microscopy. Fluorescence was monitored using a Leica Confocal Microscope DM IRE2 TCS SP2. […]

beta-gal [7] = target: beta-gal (Escherichia coli, UniProt P00722, DEL12-42); conditions: beta-gal mixed with KillerRed (unfused), E. coli extracts
Sequence of beta-gal (Escherichia coli, UniProt P00722, DEL12-42) (P00722 whole entry, stated change not applied, the tested form may be a part): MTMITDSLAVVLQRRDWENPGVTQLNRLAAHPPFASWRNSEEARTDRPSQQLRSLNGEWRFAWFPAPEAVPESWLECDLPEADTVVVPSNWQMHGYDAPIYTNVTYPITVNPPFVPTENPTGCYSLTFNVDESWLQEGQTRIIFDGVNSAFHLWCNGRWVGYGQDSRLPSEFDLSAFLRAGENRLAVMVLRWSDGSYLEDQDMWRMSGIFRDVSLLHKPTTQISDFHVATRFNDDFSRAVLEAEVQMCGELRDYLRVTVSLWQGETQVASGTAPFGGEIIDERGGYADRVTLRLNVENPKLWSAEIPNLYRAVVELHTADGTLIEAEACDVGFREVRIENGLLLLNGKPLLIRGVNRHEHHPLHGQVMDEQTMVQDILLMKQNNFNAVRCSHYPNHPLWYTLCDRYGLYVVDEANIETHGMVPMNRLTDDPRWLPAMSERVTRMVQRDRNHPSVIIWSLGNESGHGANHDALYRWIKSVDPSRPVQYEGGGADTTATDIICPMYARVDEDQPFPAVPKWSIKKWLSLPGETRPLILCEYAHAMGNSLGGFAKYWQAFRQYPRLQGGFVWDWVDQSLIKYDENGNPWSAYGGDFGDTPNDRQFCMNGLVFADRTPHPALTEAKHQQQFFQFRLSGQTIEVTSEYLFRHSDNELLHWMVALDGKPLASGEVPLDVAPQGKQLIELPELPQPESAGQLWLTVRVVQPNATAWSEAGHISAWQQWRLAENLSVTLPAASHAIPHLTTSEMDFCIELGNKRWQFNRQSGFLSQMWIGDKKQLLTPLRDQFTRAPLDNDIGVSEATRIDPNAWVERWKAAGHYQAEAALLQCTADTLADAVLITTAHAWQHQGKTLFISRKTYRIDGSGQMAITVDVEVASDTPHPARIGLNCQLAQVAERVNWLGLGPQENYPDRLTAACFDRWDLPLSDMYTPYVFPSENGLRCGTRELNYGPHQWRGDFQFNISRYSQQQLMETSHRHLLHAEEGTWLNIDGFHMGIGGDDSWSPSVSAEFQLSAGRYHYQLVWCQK
Sequence of beta-gal (Escherichia coli, UniProt P00722, DEL12-42) (P00722 with tags, fused parts or gaps DEL12-42): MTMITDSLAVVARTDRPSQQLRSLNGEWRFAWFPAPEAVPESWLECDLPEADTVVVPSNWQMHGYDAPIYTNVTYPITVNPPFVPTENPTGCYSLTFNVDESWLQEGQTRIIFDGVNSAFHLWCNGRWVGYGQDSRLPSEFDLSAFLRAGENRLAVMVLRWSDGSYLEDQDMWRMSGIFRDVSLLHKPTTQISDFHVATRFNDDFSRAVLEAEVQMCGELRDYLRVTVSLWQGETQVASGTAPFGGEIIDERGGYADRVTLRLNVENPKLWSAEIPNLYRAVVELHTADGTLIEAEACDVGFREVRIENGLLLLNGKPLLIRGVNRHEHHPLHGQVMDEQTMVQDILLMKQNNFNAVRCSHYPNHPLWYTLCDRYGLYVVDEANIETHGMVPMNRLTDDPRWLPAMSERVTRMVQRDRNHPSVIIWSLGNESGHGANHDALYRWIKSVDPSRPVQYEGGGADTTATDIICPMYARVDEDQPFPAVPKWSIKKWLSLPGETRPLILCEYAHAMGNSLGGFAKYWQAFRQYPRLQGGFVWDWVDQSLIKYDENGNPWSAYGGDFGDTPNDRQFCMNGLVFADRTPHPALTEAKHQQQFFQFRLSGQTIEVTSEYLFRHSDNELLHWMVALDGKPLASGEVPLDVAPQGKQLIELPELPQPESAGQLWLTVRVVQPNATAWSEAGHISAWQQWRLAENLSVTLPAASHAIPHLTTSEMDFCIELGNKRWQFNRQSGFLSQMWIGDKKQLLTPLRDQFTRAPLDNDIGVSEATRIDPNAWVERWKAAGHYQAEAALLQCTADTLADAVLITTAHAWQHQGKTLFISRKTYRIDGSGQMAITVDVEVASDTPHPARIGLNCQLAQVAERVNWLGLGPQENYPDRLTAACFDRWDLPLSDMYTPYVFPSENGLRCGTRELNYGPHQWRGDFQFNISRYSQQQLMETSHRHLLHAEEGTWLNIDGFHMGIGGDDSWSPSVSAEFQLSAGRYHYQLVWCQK
Experimental: O-nitrophenyl (ONP) absorption after 15 min o-nitrophenyl-D galactoside (ONPG) incubation is proportional to β-gal enzymatic activity.
Aliquots were either incubated under white light (1 W/cm2, light source Fiber-Light from Dolan-Jenner Industries, Inc) or kept in the dark. The entire volume of the tube was illuminated. Beta-gal activity was assayed in light-illuminated and “dark” aliquots calorimetrically.

293T human kidney cells = experiment: Light-induced killing of 293T cells expressing KillerRed in cytoplasm; format: cell-based
Source text: For expression in eukaryotic cells, the PCR-amplified Agel-NotI fragments from pQE30 vectors encoding KillerRed and DsRed2 (obtained as described in the Example 1) were PCR amplified and inserted in lieu of the EGFP-coding region in the pEGFP-N1 vector (Clontech).
293T human kidney cells were transiently cotransfected with these vectors and the AcGFP1-C1 vector (Clontech) using Lipofectamine reagent (Invitrogen). The cells of interest were characterized with high expression levels of both green fluorescent protein AcGFP1 and KillerRed (or DsRed2 in a control experiment). Cells were irradiated with intense green light for 10 min (100× objective, 535-575 nm excitation filter, 5.8 W/cm2). Mortality of irradiated KillerRed expressing cells reached 40-60%, depending on protein concentration (FIG. 8A).
At the same time, neighboring cells with a lower KillerRed expression level survived irradiation, presumably due to the lower concentration of the phototoxic agent. […] A Leica confocal inverted microscope TCS SP2 equipped with 125 mW Ar and 1 mW HeNe lasers was used for cell imaging. A LaserCheck (Coherent) power meter was used to measure total power of the excitation light after the microscope objective.

Molecule: CN(C)c1ccc2c(-c3ccccc3C(=O)[O-])c3ccc(N(C)C)cc3[o+]c2c1 [TMRM, tetramethylrhodamine]
- cell death (B16 melanoma cells [1]; irradiation for 10 sec, within 1.5 h interval): didn't lead to TMRM-loaded cells' death
- time to cell death (B16 melanoma cells [1]; irradiation for 1 min): 30 to 40 min
- cell death (B16 melanoma cells [1]; irradiation for 5 minutes or longer): immediate cell death

Molecule: COC(=O)C[C@H](NC(=O)[C@H](C)NC(=O)[C@@H](NC(=O)OCc1ccccc1)C(C)C)C(=O)CF [zVAD-fmk] (Cbz-Val-Ala-Asp(OMe)-CH2F)
- cell survival after identical irradiation (B16 melanoma cells [2]): survived

Molecule: superoxide dismutase
- effect of quencher on CALI of beta-gal (beta-gal [3]): impeded CALI slightly

B1: anm2CP: wild type Anthomedusae chromoprotein (SEQ ID NOs: 9 and 10) (protein)
chain: MEGGPALFQSDMTFKIFIDGVVNDQKFTIIADGSSKFPHGDFNVHAVCETGKLPMSWKPICHLIQYGEPFFAKYPNGISHFAQECFPEGLTIDRTVRFENDGTMTSHHTYELDGTCVISRITVNCDGFQPDGPIMKDQLVDILPTETHMFPHGSNAVRQLCYIGFTTADGGLMMSHFDSKLTFNGSRAIKIPGPHFVTVIIKQMKDTSDKRDHVCQREVTYAHSVPRITSAI
modifications: hydromedusa 2 from sub-order Anthomedusae
- phototoxic effect [4]: not phototoxic

B2: KillerRed: red fluorescent protein (SEQ ID NO: 4), developed from chromoprotein anm2CP by random mutagenesis; genetically encoded photosensitizer (protein)
chain: EGGPALFQSDMTFKIFIDGEVNGQKFTIVADGSSKFPHGDFNVHAVCETGKLPMSWKPICHLIQYGEPFFARYPNGISHFAQECFPEGLSIDRTVRFENDGTMTSHHTYELDDTCVVSRITVNCDGFQPDGPIMRDQLVDILPNETHMFPHGPDAVRQLAFIGFTTADGGLMMGHFDSKMTFNGSRAIEIPGPHFVTIITKQMRDTSDKRDHVCQREVAYAHSVPRITSAIGSDED
modifications: amino acid sequence for the red fluorescent protein JR18IC+
notes: genetically encoded photosensitizer
- cells killed ([5]; after 10 minutes of irradiation with white light): 96%
- cells killed ([5]; after 20 minutes of irradiation with white light): ~100%
- cell killing effect (E. coli; blue light irradiation (FITC filter set)): weak effect
- cell killing effect (E. coli; green light irradiation (TRITC filter set)): strong cell killing effect
- CALI of the PH domain [6]: no detectable CALI
- phototoxic effect [4]: striking phototoxic effect; also recorded: most strongly expressed
- bacteria killed ([4]; after 1 hour irradiation with white light): 99.95%
- effect of irradiation on enzyme activity (beta-gal [7]): no effect
- Mortality of irradiated cells (293T human kidney cells; green light 10 min, 535-575 nm, 5.8 W/cm2, depending on protein concentration): 40-60%
- fate of irradiated cell (293T human kidney cells; highly expressing cell, post irradiation with green light 10 min): disintegrated within an hour and a half

B3: S3-2 (protein)
chain: EGGPALFQSDMTFKIFIDGVVNGQKFTIVADGSSKFPHGDFNVHAVCETGKLPMSWKPICHLIQYGEPFFARYPNGISHFAQECFPEGLSIDRTVRFENDGTMTSHHTYELDGTCVVSRITVNCDGFQPDGPIMRDQLVDILPNETHMFPHGPNAVRQLAFIGFTTADGGLMMSHFDSKMTFNGSRAIKIPGPHFVTTITKQMKDTSDKRDHVCQREVTYAHSVPRITSAI
modifications: amino acid sequence for the red fluorescent protein S3-2
- phototoxic effect [4]: phototoxic
